US20210393745A1, “OLIGOMER EXTENDED INSULIN-FC CONJUGATES AND THEIR MEDICAL USE” (Novo Nordisk A/S, priority 2018, published 2021)

How the values were obtained:
[1] = In vivo PK after s.c. dosing, streptozotocin treated rats; design: species or system Sprague-Dawley rat; conditions: s.c. 30 nmol/kg, mean value
Description: (§1) Insulin-Fc conjugates were tested in vivo by subcutaneous (s.c.) administration to normal and streptozotocin (STZ) treated male Sprague-Dawley (SD) rats.
(§2) The rats were dosed s.c. in the neck region with a dose of 30 nmol/kg of the insulin-Fc conjugates. Blood samples for blood glucose and plasma insulin analysis were collected from the tongue vein up to 10 days post dosing. The insulin-Fc concentrations were measured by immuno-assay (LLOQ=1000 pM) and the resulting half-life values after s.c. dosing are shown in Table 4. The PK profiles for normal rats are shown in FIG. 3 and for streptozotocin treated rats in FIG. 6. Blood glucose (BG) was measured using Biosen S Line (EKF) and the BG and baseline corrected BG profiles for normal rats are shown in FIGS. 1 and 2 and for streptozotocin treated rats in FIGS. 4 and 5 respectively.

[2] = molecular target: T1, membrane-associated human IR-B (Homo sapiens, UniProt P06213); experiment: Insulin receptor affinity on membrane associated receptors (SPA), IR-B; assay type: binding; conditions: relative to human insulin
T1 construct: expressed in transfected cells; host or cells: BHK cells, pZem219B vector, plasma membrane preparation
Description: Membrane-associated human IR and IGF-1R are purified from BHK cells stably transfected with the pZem219B vector containing either the human IR-A, IR-B or IGF-IR insert. BHK cells are harvested and homogenized in ice-cold buffer (25 mM HEPES pH 7.4, 25 mM CaCl2 and 1 mM MgCl2, 250 mg/L bacitracin, 0.1 mM Pefablock). The homogenates are layered on a 41% (w/v) sucrose cushion and centrifuged for 75 minutes at 95000 g at 4° C. The plasma membranes are collected, diluted 1:5 with buffer (as above) and centrifuged again for 45 minutes at 40000 g at 4° C. The pellets are resuspended in a minimal volume of buffer and drawn through a needle (size 23) three times before storage at −80° C. until usage. The relative binding affinity for either of the membrane-associated human IR-A, IR-B or IGF-1R is determined by competition binding in a SPA setup. IR assays are performed in duplicate in 96-well OptiPlates (Perkin-Elmer Life Sciences). Membrane protein is incubated with gentle agitation for 150 minutes at 25° C. with 50 pM [^125IA14Y]-human insulin in a total volume of […] assay buffer (50 mM HEPES, 150 mM NaCl, 5 mM MgSO4, 0.01% Triton X-100, 0.1% (w/v) HSA (Sigma A1887), Complete EDTA-free protease inhibitors), 50 μg of wheat germ agglutinate (WGA)-coated PVT microspheres (GE Healthcare) and increasing concentrations of ligand. Assays are terminated by centrifugation of the plate at 2000 rpm for 2 minutes and bound radioactivity quantified by counting on a TopCount NXT (Perkin-Elmer Life Sciences).
IGF-1R assays are conducted essentially as for the IR binding assays except that membrane-associated IGF-1R and 50 pM [^125I-Tyr31]-human IGF-1 were employed.

[3] = Stability study: purity by anionic exchange chromatography; assay type: physicochemical; conditions: purity %(5° C.) − purity %(30° C.), 30 μM, pH 7.4
Description: Samples for stability studies were prepared by weighing out 8-10 mg freeze-dried material. The freeze-dried material was solubilized to […] in a premade solution A (5 mM phophate (pH 7.4), 140 mM NaCl and 70 ppm polysorbate 20). Protein concentration was determined using absorbance at 280 nm using a Nanodrop 2000 (Thermo Fisher Scientific Inc.) and theoretical extinction coefficients. Dilution into solution A was done to reach a final concentration of 30 μM.
Anionic exchange chromatography was performed on an Ultra-Performance Liquid Chromatography system (Waters Acquity H-Class) equipped with a fluorescence detector (Waters Acquity FLR Detector). A Bio SAX column with dimensions 50×4.6 mm from Agilent, kept at 30° C., was used in gradient elution mode. Mobile phase A was 5/95 (v/v), acetonitrile/water with 25 mM BIS-TRIS propane, pH 7.3 and mobile phase B was 5/95 (v/v), acetonitrile/water with 25 mM BIS-TRIS propane and 350 mM NaCl, pH 7.3. Injection volume was 3 μL. The flow rate was kept at 0.5 mL/min with a linear gradient from 10 to 47% B in 3 min followed by a linear gradient from 47 to 55% B in 30 min. Peaks were detected with an emission wavelength of […] and data processing is performed with the EMPOWER 3 software from Waters. Samples were analysed for purity as percent API in relation to all other species.
Reported as Δ purity %=purity %(5° C.)−purity % (30° C.).
Stability of Fc-insulin analogues was evaluated by comparing purity from anion exchange chromatography and formation of high molecular weight products (HMWP) at 5° C. (control) versus 30° C. (heat induced stress). […] The amount of HMWP was decreased by 0.5-2% in the stressed sample versus the control, i.e. some aggregated material has disassociated during incubation at 30° C.

[4] = test system: normal Sprague-Dawley rats; experiment: In vivo PD, blood glucose lowering in normal rats; design: species or system Sprague-Dawley rat; conditions: s.c. 30 nmol/kg, baseline corrected BG up to 10 days, difference from vehicle, mean
Description: as §1, §2

T1 sequence (P06213 28-758 limits assumed): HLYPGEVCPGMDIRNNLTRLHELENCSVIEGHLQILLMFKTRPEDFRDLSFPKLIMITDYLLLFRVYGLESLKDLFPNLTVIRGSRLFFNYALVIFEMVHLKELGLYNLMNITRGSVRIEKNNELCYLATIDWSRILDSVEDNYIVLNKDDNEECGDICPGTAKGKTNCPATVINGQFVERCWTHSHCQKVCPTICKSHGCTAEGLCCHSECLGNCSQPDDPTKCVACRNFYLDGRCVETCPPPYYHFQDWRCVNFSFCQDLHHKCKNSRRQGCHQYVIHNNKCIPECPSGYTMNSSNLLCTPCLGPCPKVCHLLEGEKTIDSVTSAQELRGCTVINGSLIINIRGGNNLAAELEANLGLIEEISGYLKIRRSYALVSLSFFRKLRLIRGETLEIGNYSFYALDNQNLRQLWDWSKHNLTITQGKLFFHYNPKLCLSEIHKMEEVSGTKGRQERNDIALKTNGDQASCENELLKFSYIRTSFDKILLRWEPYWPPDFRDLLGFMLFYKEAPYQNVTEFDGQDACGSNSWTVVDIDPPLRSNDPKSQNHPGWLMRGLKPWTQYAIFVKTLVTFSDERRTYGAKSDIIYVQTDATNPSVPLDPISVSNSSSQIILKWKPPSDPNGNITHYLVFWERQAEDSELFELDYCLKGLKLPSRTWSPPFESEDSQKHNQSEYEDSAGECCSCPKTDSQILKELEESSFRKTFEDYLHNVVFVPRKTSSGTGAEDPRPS
T1 sequence (P06213 763-1382 partner limits assumed): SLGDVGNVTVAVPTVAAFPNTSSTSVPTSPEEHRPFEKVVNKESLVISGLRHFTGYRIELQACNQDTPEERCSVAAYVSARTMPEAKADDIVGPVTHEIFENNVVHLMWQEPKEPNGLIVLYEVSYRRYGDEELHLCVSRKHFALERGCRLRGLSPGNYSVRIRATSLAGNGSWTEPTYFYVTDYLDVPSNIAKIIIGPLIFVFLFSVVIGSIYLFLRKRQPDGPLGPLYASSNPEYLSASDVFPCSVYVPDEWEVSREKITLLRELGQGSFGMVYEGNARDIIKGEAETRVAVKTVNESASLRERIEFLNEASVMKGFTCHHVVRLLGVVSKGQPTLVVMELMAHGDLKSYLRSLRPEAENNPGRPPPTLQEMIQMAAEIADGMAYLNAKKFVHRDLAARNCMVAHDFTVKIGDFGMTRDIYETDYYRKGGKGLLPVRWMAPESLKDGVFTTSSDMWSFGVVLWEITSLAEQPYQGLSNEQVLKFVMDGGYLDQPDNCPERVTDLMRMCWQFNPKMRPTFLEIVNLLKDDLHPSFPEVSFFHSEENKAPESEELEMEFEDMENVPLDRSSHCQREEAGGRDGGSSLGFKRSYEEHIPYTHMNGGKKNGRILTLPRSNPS

Substance	PK STZ rat [T1/2, s.c. (h)] [1] [h]	hIR-B mem Rel. aff. (%) [2] [%]	Δ purity [3] [%]	AOCBG normal rat [4] [mM·h]
(A14E, A21G, A22(GQEP)11, A66G, A67Q, A68E, A69K^, A70P, B16H, B25H, B29R, desB30 human insulin)/(226A, 227G, 228P, 234A, 235K, 297E, 315Q, 384Q, des447 hIgG4-Fc(226-447))3,5-bis[(2-acetyl)amino]benzoyl Conjugate [Example 5.2]	39	1.26	6.7	364
(A14E, A21G, A22(GQEP)12, A70K^, A71P, B25H, B29R, desB30 human insulin)/(226A, 227G, 228P, 234A, 235K, 297E, 315Q, 384Q, des447 hIgG4-Fc(226-447))3,5-bis[(2-acetyl)amino]benzoyl Conjugate [Example 5.1]	24	3.05	3.3	251
